The target of the series is IL-23 (human, p19/p40 heterodimer) (Homo sapiens, UniProt Q9NPF7;P29460 SEQ:20-189,SEQ:23-328). Kind of series: filter; DPBS Ca Mg. The settings on record: tags: R&D Systems, carrier free. As to the method:
The dot blot binding assay previously described was used to characterize the relative potency of the majority of the aptamers synthesized. For KD determination, chemically synthesized aptamers were purified using denaturing polyacrylamide gel electrophoresis, 5′end labeled with γ-³²P ATP and were tested for direct binding to full human IL-23. An 8 point protein titration was used in the dot blot binding assay (either {100 nM, 30 nM, 10 nM, 3 nM, 1 nM, 300 pM, 100 pM, 0 pM} or {10 nM, 3 nM, 1 nM, 300 pM, 100 pM, 30 pM, 10 pM, 0 pM}) in Dulbecco's PBS (with Mg⁺⁺ and Ca⁺⁺) with 0.1 mg/mL BSA. KD values were calculated by fitting the equation y=(max/(1+K/protein))+yint using KaleidaGraph (KaleidaGraph v. 3.51, Synergy Software). Sequences of the ARC979 derivatives synthesized, purified and assayed for binding to IL-23 as well as the results of the protein binding characterization are tabulated below in Tables 29 and 30.

Sequence of IL-23 (human, p19/p40 heterodimer) (Q9NPF7 20-189, chain 1 of 2): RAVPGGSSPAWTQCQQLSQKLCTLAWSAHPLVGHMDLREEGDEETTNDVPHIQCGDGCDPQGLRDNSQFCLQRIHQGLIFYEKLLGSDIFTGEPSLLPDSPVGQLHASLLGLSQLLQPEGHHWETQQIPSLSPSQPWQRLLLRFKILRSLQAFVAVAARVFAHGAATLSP
Sequence of IL-23 (human, p19/p40 heterodimer) (P29460 23-328, chain 2 of 2): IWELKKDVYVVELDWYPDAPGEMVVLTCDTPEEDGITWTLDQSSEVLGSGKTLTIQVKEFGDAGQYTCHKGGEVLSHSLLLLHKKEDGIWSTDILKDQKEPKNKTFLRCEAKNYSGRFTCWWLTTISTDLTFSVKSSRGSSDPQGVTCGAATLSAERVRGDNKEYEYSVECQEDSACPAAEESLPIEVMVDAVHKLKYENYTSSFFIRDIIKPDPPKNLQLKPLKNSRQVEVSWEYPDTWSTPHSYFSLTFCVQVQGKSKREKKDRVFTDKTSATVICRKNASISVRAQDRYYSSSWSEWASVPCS

B1: ARC1621 (mixed)
RNA: ACAGGCAAGUAAUUGGGGAGUGCGGGCGGGGUGU
modifications: 2'-OMe C,U and G16,G17,G24,G25,G30,G31; other A,G deoxy; PS 3-4,4-5; 3'-idT [PS 3-4,4-5; 2'-OMe at 2,6,10,13,14,16,17,21,23,24,25,27,30,31,32,34; other A,G deoxy; 3'-inverted dT at 35]
In general, Kd refers to the equilibrium constant for the complex coming apart. With B1, the Kd was determined as 0.5 nM.

B2: ARC1453 (mixed)
RNA: B1 RNA
modifications: deoxy A,G; 2'-OMe C,U; PS 3-4; 3'-idT [PS linkage 3-4; 2'-OMe C,U at 2,6,10,13,14,21,23,27,32,34; all A,G 2'-deoxy; 3'-inverted dT at 35]
Take B2: the Kd worked out at 4.4 nM.

B3: ARC1433 (mixed)
RNA: B1 RNA
modifications: 2'-OMe C,U and G9; other A,G deoxy; 3'-idT
As to B3, the Kd came to 2.8 nM.

B4: ARC1429 (mixed)
RNA: B1 RNA
modifications: 2'-OMe C,U and G4; other A,G deoxy; 3'-idT
As for B4, the Kd worked out at 29.5 nM.

B5: ARC1428 (mixed)
RNA: B1 RNA
modifications: 2'-OMe C,U and A3; other A,G deoxy; 3'-idT
B5: the Kd stood at 1.8 nM.

B6: ARC1447 (mixed)
RNA: B1 RNA
modifications: 2'-OMe C,U and G29; other A,G deoxy; 3'-idT
As for B6, the Kd was 2.5 nM.

B7: ARC1454 (mixed)
RNA: B1 RNA
modifications: deoxy A,G; 2'-OMe C,U; PS 4-5; 3'-idT [PS linkage 4-5; 2'-OMe C,U at 2,6,10,13,14,21,23,27,32,34; all A,G 2'-deoxy; 3'-inverted dT at 35]
As to B7, the Kd was 2.7 nM.

B8: ARC1539 (mixed)
RNA: B1 RNA
modifications: 2'-OMe C,U and A1,G33; other A,G deoxy; 3'-idT
As to B8, the Kd was found to be 6.6 nM.

B9: ARC1455 (mixed)
RNA: B1 RNA
modifications: deoxy A,G; 2'-OMe C,U; PS 5-6; 3'-idT [PS linkage 5-6; 2'-OMe C,U at 2,6,10,13,14,21,23,27,32,34; all A,G 2'-deoxy; 3'-inverted dT at 35]
In the case of B9, the equilibrium dissociation constant (Kd) worked out at 1.6 nM.

B10: ARC1440 (mixed)
RNA: B1 RNA
modifications: 2'-OMe C,U and A19; other A,G deoxy; 3'-idT
On to B10, for which the Kd amounted to 6.7 nM.

B11: ARC1458 (mixed)
RNA: B1 RNA
modifications: deoxy A,G; 2'-OMe C,U; PS 17-18; 3'-idT [PS linkage 17-18; 2'-OMe C,U at 2,6,10,13,14,21,23,27,32,34; all A,G 2'-deoxy; 3'-inverted dT at 35]
Regarding B11, the Kd came to 2.9 nM.

B12: ARC1460 (mixed)
RNA: B1 RNA
modifications: deoxy A,G; 2'-OMe C,U; PS 24-25; 3'-idT [PS linkage 24-25; 2'-OMe C,U at 2,6,10,13,14,21,23,27,32,34; all A,G 2'-deoxy; 3'-inverted dT at 35]
B12: the Kd amounted to 5.8 nM.

B13: ARC1449 (mixed)
RNA: B1 RNA
modifications: 2'-OMe C,U and G31; other A,G deoxy; 3'-idT
Regarding B13, the Kd came to 2.6 nM.

B14: ARC1451 (mixed)
RNA: B1 RNA
modifications: 2'-OMe C,U and A1,A3,G33; other A,G deoxy; 3'-idT
In the case of B14, the Kd is 10.2 nM.

B15: ARC1437 (mixed)
RNA: B1 RNA
modifications: 2'-OMe C,U and G16; other A,G deoxy; 3'-idT
Turning to B15, the Kd amounted to 3.9 nM.

B16: ARC1462 (mixed)
RNA: B1 RNA
modifications: deoxy A,G; 2'-OMe C,U; PS 29-30; 3'-idT [2'-OMe C,U at 2,6,10,13,14,21,23,27,32,34; deoxy A,G elsewhere; PS 29-30 (N = PS linkage, left out); 3'-inverted dT at 35]
Turning to B16, the Kd was found to be 1.7 nM.

B17: ARC1430 (mixed)
RNA: B1 RNA
modifications: 2'-OMe C,U and G5; other A,G deoxy; 3'-idT
For B17, the Kd came to 14.2 nM.

B18: ARC1541 (mixed)
RNA: B1 RNA
modifications: 2'-OMe C,U and G18,A19,G20,G22; other A,G deoxy; 3'-idT
For the molecule B18, the Kd amounted to 3.9 nM.

B19: ARC1459 (mixed)
RNA: B1 RNA
modifications: deoxy A,G; 2'-OMe C,U; PS 23-24; 3'-idT [PS linkage 23-24; 2'-OMe C,U at 2,6,10,13,14,21,23,27,32,34; all A,G 2'-deoxy; 3'-inverted dT at 35]
On to B19, for which the Kd stood at 4 nM.

B20: ARC1448 (mixed)
RNA: B1 RNA
modifications: 2'-OMe C,U and G30; other A,G deoxy; 3'-idT
Regarding B20, the Kd stood at 2.3 nM.

B21: ARC1434 (mixed)
RNA: B1 RNA
modifications: 2'-OMe C,U and A11; other A,G deoxy; 3'-idT
B21: the Kd is 3 nM.

B22: ARC1463 (mixed)
RNA: B1 RNA
modifications: deoxy A,G; 2'-OMe C,U; PS 30-31; 3'-idT [2'-OMe C,U at 2,6,10,13,14,21,23,27,32,34; deoxy A,G elsewhere; PS 30-31 (N = PS linkage, left out); 3'-inverted dT at 35]
Turning to B22, the Kd came to 3.6 nM.

B23: ARC1442 (mixed)
RNA: B1 RNA
modifications: 2'-OMe C,U and G22; other A,G deoxy; 3'-idT
In the case of B23, the Kd came out at 2.8 nM.

B24: ARC1427 (mixed)
RNA: B1 RNA
modifications: 2'-OMe C,U and A1; other A,G deoxy; 3'-idT
For the molecule B24, the Kd was 3 nM.

B25: ARC1542 (mixed)
RNA: B1 RNA
modifications: 2'-OMe C,U and G26,G28,G29; other A,G deoxy; 3'-idT
As for B25, the Kd was 1.2 nM.

B26: ARC1457 (mixed)
RNA: B1 RNA
modifications: deoxy A,G; 2'-OMe C,U; PS 16-17; 3'-idT [PS linkage 16-17; 2'-OMe C,U at 2,6,10,13,14,21,23,27,32,34; all A,G 2'-deoxy; 3'-inverted dT at 35]
Take B26: the Kd turned out to be 3 nM.

B27: ARC1456 (mixed)
RNA: B1 RNA
modifications: deoxy A,G; 2'-OMe C,U; PS 15-16; 3'-idT [PS linkage 15-16; 2'-OMe C,U at 2,6,10,13,14,21,23,27,32,34; all A,G 2'-deoxy; 3'-inverted dT at 35]
On to B27, for which the Kd was 3.2 nM.

B28: ARC1443 (mixed)
RNA: B1 RNA
modifications: 2'-OMe C,U and G24; other A,G deoxy; 3'-idT
With B28, the Kd came out at 2 nM.

B29: ARC1543 (mixed)
RNA: B1 RNA
modifications: 2'-OMe C,U and A1,A8,G9,A11,G18,A19,G20,G22,G26,G28,G29,G33; other A,G deoxy; 3'-idT
Turning to B29, the Kd was determined as 5.9 nM.

B30: ARC1452 (mixed)
RNA: B1 RNA
modifications: 2'-OMe C,U and A7,A8,G15; other A,G deoxy; 3'-idT
On to B30, for which the Kd stood at 18.9 nM.

B31: ARC1441 (mixed)
RNA: B1 RNA
modifications: 2'-OMe C,U and G20; other A,G deoxy; 3'-idT
For B31, the Kd turned out to be 2.7 nM.

B32: ARC1464 (mixed)
RNA: B1 RNA
modifications: deoxy A,G; 2'-OMe C,U; PS 31-32; 3'-idT [2'-OMe C,U at 2,6,10,13,14,21,23,27,32,34; deoxy A,G elsewhere; PS 31-32 (N = PS linkage, left out); 3'-inverted dT at 35]
On to B32, for which the Kd worked out at 2.4 nM.

B33: ARC1446 (mixed)
RNA: B1 RNA
modifications: 2'-OMe C,U and G28; other A,G deoxy; 3'-idT
Consider B33, for which the Kd was found to be 2.1 nM.

B34: ARC1540 (mixed)
RNA: B1 RNA
modifications: 2'-OMe C,U and A8,G9,A11; other A,G deoxy; 3'-idT
As for B34, the Kd is 7.5 nM.

B35: ARC1465 (mixed)
RNA: B1 RNA
modifications: deoxy A,G; 2'-OMe C,U; PS 11-12,19-20,20-21,21-22,22-23,26-27; 3'-idT [2'-OMe C,U at 2,6,10,13,14,21,23,27,32,34; deoxy A,G elsewhere; PS 11-12,19-20,20-21,21-22,22-23,26-27 (N = PS linkage, left out); 3'-inverted dT at 35]
For the molecule B35, the dissociation constant (Kd) was 1.3 nM.

B36: ARC1444 (mixed)
RNA: B1 RNA
modifications: 2'-OMe C,U and G25; other A,G deoxy; 3'-idT
B36: the Kd was determined as 4.4 nM.

B37: ARC1439 (mixed)
RNA: B1 RNA
modifications: 2'-OMe C,U and G18; other A,G deoxy; 3'-idT
Turning to B37, the Kd stood at 4.8 nM.

B38: ARC1438 (mixed)
RNA: B1 RNA
modifications: 2'-OMe C,U and G17; other A,G deoxy; 3'-idT
As for B38, the Kd is 6 nM.

B39: ARC1450 (mixed)
RNA: B1 RNA
modifications: 2'-OMe C,U and G33; other A,G deoxy; 3'-idT
Turning to B39, the Kd came to 2.6 nM.

B40: ARC1445 (mixed)
RNA: B1 RNA
modifications: 2'-OMe C,U and G26; other A,G deoxy; 3'-idT
As for B40, the Kd worked out at 2.8 nM.

B41: ARC1432 (mixed)
RNA: B1 RNA
modifications: 2'-OMe C,U and A8; other A,G deoxy; 3'-idT
On to B41, for which the Kd stood at 3.8 nM.

B42: ARC1435 (mixed)
RNA: B1 RNA
modifications: 2'-OMe C,U and A12; other A,G deoxy; 3'-idT
With B42, the Kd stood at 9.8 nM.

B43: ARC1461 (mixed)
RNA: B1 RNA
modifications: deoxy A,G; 2'-OMe C,U; PS 25-26; 3'-idT [PS linkage 25-26; 2'-OMe C,U at 2,6,10,13,14,21,23,27,32,34; all A,G 2'-deoxy; 3'-inverted dT at 35]
Take B43: the Kd came to 3.7 nM.

B44: ARC1470 (mixed)
RNA: GGCAAGUAAUUGGGGAGUGCGGGCGGGG
modifications: deoxy A,G; 2'-OMe C,U; six PS; 3'-idT [2'-OMe C,U at 3,7,10,11,18,20,24; deoxy A,G elsewhere; PS 8-9,16-17,17-18,18-19,19-20,23-24 (N = PS linkage, left out); 3'-inverted dT at 29]
As to B44, the Kd came to 8.6 nM.

B45: ARC1471 (mixed)
RNA: GGCAAGUAAUUGGGGAGUGCGGGCGGGG
modifications: 2'-OMe C,U and three purines (A7,A8,G15 of ARC979); six PS; 3'-idT [2'-OMe C,U at 3,7,10,11,18,20,24; 2'-OMe purines A4,A5,G12; deoxy A,G elsewhere; PS 8-9,16-17,17-18,18-19,19-20,23-24 (N = PS linkage, left out); 3'-inverted dT at 29]
As for B45, the Kd came to 23.5 nM.

Values taken from patent US20060193821, “Aptamers to the human IL-12 cytokine family and their use as autoimmune disease therapeutics” (published 2006).
